Assay results from US20240199740A1.

Columns and labels:
[1] = target: cynomolgus TCR/CD3 expressed on cells (cynomolgus); assay: cell-based or functional assay
[2] = target: recombinant human CD123 protein (R&D Systems, 301-R3/CF) (human) (UniProt P26951); assay: competition ELISA, coated antibody 7G3, 4 nM biotinylated recombinant CD123, antibody 7G3 in solution titrated
[3] = target: recombinant human CD123 protein (R&D Systems, 301-R3/CF) (human) (UniProt P26951); assay: ELISA, antibody 7G3 coated at 1 µg/ml, in house biotinylated recombinant CD123 titrated (concentration axis taken as CD123 per paragraph 750)

recombinant human CD123 protein (R&D Systems, 301-R3/CF) (human), sequence (P26951 19-305): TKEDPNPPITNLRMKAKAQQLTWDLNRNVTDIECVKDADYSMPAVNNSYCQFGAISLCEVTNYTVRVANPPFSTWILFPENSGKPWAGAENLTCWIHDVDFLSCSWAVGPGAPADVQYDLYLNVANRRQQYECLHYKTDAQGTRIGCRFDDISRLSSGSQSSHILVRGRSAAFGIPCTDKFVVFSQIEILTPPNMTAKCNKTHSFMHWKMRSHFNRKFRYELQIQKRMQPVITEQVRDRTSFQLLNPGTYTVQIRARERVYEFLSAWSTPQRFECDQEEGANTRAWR

IC50 (read off the curve) [2] | EC50 (read off the curve) [3] | Binder | % lysis, redirected cyno T cell mediated killing of KG1a cells, flow cytometry [1] | EC50 (M), redirected cyno T cell mediated killing of KG1a cells, flow cytometry [1]
 |  | T017000135 (bispecific antibody) DVQLVESGGGLVQAGGPLRLSCAASGRTFSSYVMGWFRQAPGKEREFVAAIYWSNGKTQYTDSVKGRFTISGDNAKNTVYLQMNSLNPEDTAVYYCVADKDETGFRTLPIAYDYWGQGTLVTVSSGGGGSGGGGSGGGGSGGGGSGGGGSGGGGSGGGGSEVQLVESGGGLVQPGGSLRLSCVASGDVHKINFLGWYRQAPGKEREKVAHISIGDQTDYADSAKGRFTISRDESKNMVYLQMNSLKPEDTAVYFCRAFSRIYPYDYWGQGTLVTVSSGGGGSGGGGSGGGGSGGGGSGGGGSGGGGSGGGGSEVQLVESGGGLVQAGGSLRLSCAASGITSKINDMGWYRQTPGNYREWVASITATGTTNYRDSVKGRFTISRDNAKSTVYLQMNSLKPEDTTVYYCNTFPPISNFWGQGTLVTVSSA | 22% | 2.4e-11 M
2 nM | 10 nM | mouse monoclonal anti-CD123 antibody (clone 7G3) (antibody, from another filing, V domains shown) VH: EVQLQQSGPELVKPGASVKMSCKASGYTFTDYYMKWVKQSHGKSLEWIGDIIPSNGATFYNQKFKGKATLTVDRSSSTAYMHLNSLTSEDSAVYYCTRSHLLRASWFAYWGQGTLVTVSA VL: DFVMTQSPSSLTVTAGEKVTMSCKSSQSLLNSGNQKNYLTWYLQKPGQPPKLLIYWASTRESGVPDRFTGSGSGTDFTLTISSVQAEDLAVYYCQNDYSYPYTFGGGTKLEIK |  | 
